# In the supplement of paper PMC10567573:
# B1: PTPRD (parent)
# chain: LTKLREMGREKCHQYWPAERSARY
# B2: SLC19A2 (parent)
# chain: IYPVWTYSYLVLLFPVFLATDYLR
# Variants of: B1
# Test: protein stability index of a GFP-peptide fusion (GPS, HEK-293T) (PSI 1-6); higher = more stable
# Conditions: c terminus: a fixed tail appended
# 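Note: lentivirally expressed fusions sorted by FACS into six bins by GFP to DsRed ratio, PSI derived from sequencing read proportions per bin multiplied by bin number.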
row,Variant,protein stability index
1,LTKEREMGREKCHQYWPAERSARY,3.55
2,LTKYREMGREKCHQYWPAERSARY,2.63
3,LTKFREMGREKCHQYWPAERSARY,2.63
4,LTKKREMGREKCHQYWPAERSARY,2.8
5,LTKGREMGREKCHQYWPAERSARY,3.55
6,LTKAREMGREKCHQYWPAERSARY,2.72
7,LTKWREMGREKCHQYWPAERSARY,2.12
8,LTKNREMGREKCHQYWPAERSARY,3.04
9,LTKIREMGREKCHQYWPAERSARY,2.58
10,LTKHREMGREKCHQYWPAERSARY,2.84
11,LTKCREMGREKCHQYWPAERSARY,2.12
12,LTKQREMGREKCHQYWPAERSARY,3.1
13,LTKVREMGREKCHQYWPAERSARY,2.48
14,LTKDREMGREKCHQYWPAERSARY,3.29
15,LTKMREMGREKCHQYWPAERSARY,2.65
16,LTKTREMGREKCHQYWPAERSARY,2.77
17,LTKSREMGREKCHQYWPAERSARY,2.99
18,LTKRREMGREKCHQYWPAERSARY,2.92
19,LTKPREMGREKCHQYWPAERSARY,2.88
20,NTKLREMGREKCHQYWPAERSARY,3.1
21,YTKLREMGREKCHQYWPAERSARY,2.21
22,ATKLREMGREKCHQYWPAERSARY,2.88
23,GTKLREMGREKCHQYWPAERSARY,2.47
24,HTKLREMGREKCHQYWPAERSARY,2.87
25,WTKLREMGREKCHQYWPAERSARY,2.43
26,CTKLREMGREKCHQYWPAERSARY,2.42

row,Variant,protein stability index
1,VTKLREMGREKCHQYWPAERSARY,2.39
2,FTKLREMGREKCHQYWPAERSARY,1.97
3,ITKLREMGREKCHQYWPAERSARY,2.26
4,KTKLREMGREKCHQYWPAERSARY,3.36
5,DTKLREMGREKCHQYWPAERSARY,3.59
6,QTKLREMGREKCHQYWPAERSARY,2.87
7,STKLREMGREKCHQYWPAERSARY,2.59
8,TTKLREMGREKCHQYWPAERSARY,2.86
9,ETKLREMGREKCHQYWPAERSARY,3.12
10,MTKLREMGREKCHQYWPAERSARY,2.95
11,PTKLREMGREKCHQYWPAERSARY,2.66
12,RTKLREMGREKCHQYWPAERSARY,2.47
13,LTDLREMGREKCHQYWPAERSARY,2.9
14,LTWLREMGREKCHQYWPAERSARY,1.88
15,LTNLREMGREKCHQYWPAERSARY,3.09
16,LTLLREMGREKCHQYWPAERSARY,2.21
17,LTALREMGREKCHQYWPAERSARY,2.7
18,LTFLREMGREKCHQYWPAERSARY,2.4
19,LTSLREMGREKCHQYWPAERSARY,2.73
20,LTPLREMGREKCHQYWPAERSARY,2.66
21,LTHLREMGREKCHQYWPAERSARY,2.41
22,LTILREMGREKCHQYWPAERSARY,2.08
23,LTGLREMGREKCHQYWPAERSARY,2.64
24,LTELREMGREKCHQYWPAERSARY,3.3
25,LTCLREMGREKCHQYWPAERSARY,2.34
26,LTVLREMGREKCHQYWPAERSARY,1.92

row,Variant,protein stability index
1,LTMLREMGREKCHQYWPAERSARY,2.41
2,LTTLREMGREKCHQYWPAERSARY,2.63
3,LTQLREMGREKCHQYWPAERSARY,2.33
4,LTYLREMGREKCHQYWPAERSARY,2.44
5,LTRLREMGREKCHQYWPAERSARY,2.43
6,LTKLREPGREKCHQYWPAERSARY,2.67
7,LTKLRENGREKCHQYWPAERSARY,2.77
8,LTKLREFGREKCHQYWPAERSARY,2.41
9,LTKLRERGREKCHQYWPAERSARY,2.35
10,LTKLREHGREKCHQYWPAERSARY,2.75
11,LTKLREKGREKCHQYWPAERSARY,2.98
12,LTKLREEGREKCHQYWPAERSARY,3.25
13,LTKLREIGREKCHQYWPAERSARY,2.54
14,LTKLRESGREKCHQYWPAERSARY,2.55
15,LTKLRECGREKCHQYWPAERSARY,2.23
16,LTKLRELGREKCHQYWPAERSARY,1.9
17,LTKLREQGREKCHQYWPAERSARY,2.56
18,LTKLREAGREKCHQYWPAERSARY,2.57
19,LTKLREDGREKCHQYWPAERSARY,3.14
20,LTKLREGGREKCHQYWPAERSARY,2.64
21,LTKLRHMGREKCHQYWPAERSARY,2.09
22,LTKLRQMGREKCHQYWPAERSARY,2.1
23,LTKLRNMGREKCHQYWPAERSARY,1.8
24,LTKLRDMGREKCHQYWPAERSARY,2.66
25,LTKLRAMGREKCHQYWPAERSARY,2.41
26,LTKLRTMGREKCHQYWPAERSARY,2.52

row,Variant,protein stability index
1,LTKLRWMGREKCHQYWPAERSARY,1.82
2,LTKLRIMGREKCHQYWPAERSARY,1.9
3,LTKLRFMGREKCHQYWPAERSARY,2.45
4,LTKLRVMGREKCHQYWPAERSARY,1.73
5,LTKLRLMGREKCHQYWPAERSARY,2.13
6,LTKLRGMGREKCHQYWPAERSARY,2.23
7,LTKLRPMGREKCHQYWPAERSARY,2.33
8,LTKLRMMGREKCHQYWPAERSARY,2.18
9,LTKLRCMGREKCHQYWPAERSARY,1.75
10,LTKLRYMGREKCHQYWPAERSARY,1.7
11,LTKLRRMGREKCHQYWPAERSARY,2.38
12,LTKLRSMGREKCHQYWPAERSARY,1.98
13,LTKLRKMGREKCHQYWPAERSARY,1.95
14,LEKLREMGREKCHQYWPAERSARY,3.03
15,LRKLREMGREKCHQYWPAERSARY,2.3
16,LAKLREMGREKCHQYWPAERSARY,2.69
17,LGKLREMGREKCHQYWPAERSARY,2.77
18,LDKLREMGREKCHQYWPAERSARY,2.83
19,LNKLREMGREKCHQYWPAERSARY,2.29
20,LQKLREMGREKCHQYWPAERSARY,2.95
21,LCKLREMGREKCHQYWPAERSARY,1.82
22,LSKLREMGREKCHQYWPAERSARY,2.16
23,LHKLREMGREKCHQYWPAERSARY,2.25
24,LWKLREMGREKCHQYWPAERSARY,1.78
25,LMKLREMGREKCHQYWPAERSARY,2.29
26,LFKLREMGREKCHQYWPAERSARY,1.96

row,Variant,protein stability index
1,LVKLREMGREKCHQYWPAERSARY,1.99
2,LLKLREMGREKCHQYWPAERSARY,2.15
3,LYKLREMGREKCHQYWPAERSARY,1.97
4,LIKLREMGREKCHQYWPAERSARY,2.22
5,LPKLREMGREKCHQYWPAERSARY,2.53
6,LKKLREMGREKCHQYWPAERSARY,2.92
7,LTKLFEMGREKCHQYWPAERSARY,2.21
8,LTKLPEMGREKCHQYWPAERSARY,2.75
9,LTKLCEMGREKCHQYWPAERSARY,2.62
10,LTKLQEMGREKCHQYWPAERSARY,2.91
11,LTKLEEMGREKCHQYWPAERSARY,3.16
12,LTKLNEMGREKCHQYWPAERSARY,2.76
13,LTKLVEMGREKCHQYWPAERSARY,2.18
14,LTKLDEMGREKCHQYWPAERSARY,3.32
15,LTKLYEMGREKCHQYWPAERSARY,2.23
16,LTKLKEMGREKCHQYWPAERSARY,2.29
17,LTKLWEMGREKCHQYWPAERSARY,2.24
18,LTKLIEMGREKCHQYWPAERSARY,2.44
19,LTKLTEMGREKCHQYWPAERSARY,2.38
20,LTKLSEMGREKCHQYWPAERSARY,3.17
21,LTKLHEMGREKCHQYWPAERSARY,2.58
22,LTKLLEMGREKCHQYWPAERSARY,2.4
23,LTKLGEMGREKCHQYWPAERSARY,3.18
24,LTKLAEMGREKCHQYWPAERSARY,2.53
25,LTKLMEMGREKCHQYWPAERSARY,2.39

# Variants of: B2
# Test: as above
# Conditions: c terminus: a fixed tail appended
row,Variant,protein stability index
1,IYPVWTYSYLVLLFPVFLATDYIR,2.61
2,IYPVWTYSYLVLLFPVFLATDYTR,2.48
3,IYPVWTYSYLVLLFPVFLATDYHR,2.11
4,IYPVWTYSYLVLLFPVFLATDYNR,1.46
5,IYPVWTYSYLVLLFPVFLATDYSR,2.62
6,IYPVWTYSYLVLLFPVFLATDYWR,3.21
7,IYPVWTYSYLVLLFPVFLATDYER,2.68
8,IYPVWTYSYLVLLFPVFLATDYVR,2.32
9,IYPVWTYSYLVLLFPVFLATDYKR,2.22
10,IYPVWTYSYLVLLFPVFLATDYRR,3.03
11,IYPVWTYSYLVLLFPVFLATDYMR,3.02
12,IYPVWTYSYLVLLFPVFLATDYDR,2.96
13,IYPVWTYSYLVLLFPVFLATDYAR,3.57
14,IYPVWTYSYLVLLFPVFLATDYGR,3.42
15,IYPVWTYSYLVLLFPVFLATDYQR,2.54
16,IYPVWTYSYLVLLFPVFLATDYLA,2.61
17,IYPVWTYSYLVLLFPVFLATDYLY,2.75
18,IYPVWTYSYLVLLFPVFLATDYLK,3.31
19,IYPVWTYSYLVLLFPVFLATDYLW,3.24
20,IYPVWTYSYLVLLFPVFLATDYLD,2.64

row,Variant,protein stability index
1,IYPVWTYSYLVLLFPVFLATDYLS,3.04
2,IYPVWTYSYLVLLFPVFLATDYLL,2.41
3,IYPVWTYSYLVLLFPVFLATDYLP,1.99
4,IYPVWTYSYLVLLFPVFLATDYLI,3.43
5,IYPVWTYSYLVLLFPVFLATDYLC,1.84
6,IYPVWTYSYLVLLFPVFLATDYLM,2.99
7,IYPVWTYSYLVLLFPVFLATDYLN,4.07
8,IYPVWTYSYLVLLFPVFLATDYLH,2.63
9,IYPVWTYSYLVLLFPVFLATDYLE,1.91
10,IYPVWTYSYLVLLFPVFLATDYLF,3.56
11,IYPVWTYSYLVLLFPVFLATDYLT,1.69
12,IYPVWTYSYLVLLFPVFLATDYLG,2.58
13,IYPVWTYSYLVLLFPVFLATDYLQ,3.46
14,IYPVWTYSYLVLLFPVFLATDDLR,2.55
15,IYPVWTYSYLVLLFPVFLATDSLR,3.06
16,IYPVWTYSYLVLLFPVFLATDRLR,1.75
17,IYPVWTYSYLVLLFPVFLATDGLR,1.66
18,IYPVWTYSYLVLLFPVFLATDELR,2.71
19,IYPVWTYSYLVLLFPVFLATDQLR,1.98
20,IYPVWTYSYLVLLFPVFLATDKLR,4.23

row,Variant,protein stability index
1,IYPVWTYSYLVLLFPVFLATDPLR,3.49
2,IYPVWTYSYLVLLFPVFLATDTLR,2.68
3,IYPVWTYSYLVLLFPVFLATDVLR,2.6
4,IYPVWTYSYLVLLFPVFLATDFLR,3.76
5,IYPVWTYSYLVLLFPVFLATDWLR,2.78
6,IYPVWTYSYLVLLFPVFLATCYLR,2.36
7,IYPVWTYSYLVLLFPVFLATNYLR,2.65
8,IYPVWTYSYLVLLFPVFLATFYLR,2.61
9,IYPVWTYSYLVLLFPVFLATPYLR,2.63
10,IYPVWTYSYLVLLFPVFLATEYLR,3.77
11,IYPVWTYSYLVLLFPVFLATGYLR,2.73
12,IYPVWTYSYLVLLFPVFLATYYLR,3.42
13,IYPVWTYSYLVLLFPVFLATKYLR,2.46
14,IYPVWTYSYLVLLFPVFLATVYLR,2.38
15,IYPVWTYSYLVLLFPVFLATHYLR,3.39
16,IYPVWTYSYLVLLFPVFLATSYLR,2.09
17,IYPVWTYSYLVLLFPVFLATRYLR,2.67
18,IYPVWTYSYLVLLFPVFLATWYLR,2.24
19,IYPVWTYSYLVLLFPVFLATTYLR,2.75
